Data on five molecules can be found in US7192728B2, “Screening assays for agents that alter inhibitor of apoptosis (IAP) protein regulation of caspase activity” (The Burnham Institute, priority 1997, dated 2007).

Assay [1] deals with DEVD-pNA hydrolysis activity in 293 cell cytosolic extracts. Briefly: Cytochrome c/dATP-induced caspase activation (DEVD hydrolysis) in 293 cell cytosolic extracts. To be noted: 293 extracts + cytochrome c/dATP; GST-XIAP 0.2 μM, GST controls 2 μM, His6-S5a 5 μM; untreated ≈0.01. The format is biochemical, human. The protocol: (§1) Cells were washed with ice cold buffer A (20 mM Hepes (pH 7.5), 10 mM KCl, 1.5 mM MgCl2, 1 mM EDTA, 1 mM DTT and 0.1 mM PMSF) and suspended in 1 vol buffer A, then incubated on ice for 20 min. 293 cells were disrupted by passage 15× through a 26 gauge needle and Jurkat T cells were disrupted by dounce homogenization in 2 ml using 15 strokes with a pestle B. Cell extracts (10–15 mg total protein/ml) were clarified by centrifugation at 16,000×g for 30 min, then the NaCl concentration was increased by 50 mM. Cytosolic fractions were used immediately or stored frozen at −80° C.
(§2) Caspase activity was assayed by release of either 7-amino-4-trifluoromethyl-coumarin (AFC) or p-nitroanilide (pNA) from benzylyoxycarbonyl-DEVD (SEQ ID NO: 2) or benzylyoxycarbonyl-YVAD (SEQ ID NO: 3) synthetic peptides using a Molecular Devices Spectromax 340 for AFC labeled peptides or Perkin/Elmer LS50B for pNA labeled peptides (see Example II; see, also, Zhou et al., supra, 1997). Cytosolic extracts from 293 cells or Jurkat T cells were used directly (negative control) or were treated with 1 μM cytochrome c and 1 mM dATP or with cytochrome c, dATP and 0.2 μM GST-XIAP. Additional control reactions were performed by substituting 2 μM GST-Bcl-2, GST-Bax, GST-NM23 or GST-CD40 cytosolic domain, or 5 μM His6-S5a protein for GST-XIAP. DEVD-pNA hydrolysis was measured at various times and multiple experiments were performed using several different GST-XIAP preparations.

Assay [2] deals with DEVD-pNA hydrolysis activity in Jurkat T cell cytosolic extracts. Briefly: Cytochrome c/dATP-induced caspase activation (DEVD-pNA hydrolysis) in Jurkat T cell cytosolic extracts. The format is biochemical. The settings on record: for DEVD-pNA hydrolysis, ΔA405 after 15 min: untreated ≈0.02; for DEVD-pNA hydrolysis, ΔA405 after 20 min: untreated ≈0.025. The protocol: as §1, §2

Assay [3] has as its target T1, caspase-3 (Homo sapiens, UniProt P42574).
T1 construct: to produce the 17–20 kDa mature, fully processed large subunit of the active caspase-3 enzyme; a smaller, fully processed, subunit of about 11 kDa; His6; made in house; host or cells: E. coli BL21(DE3)pLysS
T1 sequence (P42574 29-175 limits assumed): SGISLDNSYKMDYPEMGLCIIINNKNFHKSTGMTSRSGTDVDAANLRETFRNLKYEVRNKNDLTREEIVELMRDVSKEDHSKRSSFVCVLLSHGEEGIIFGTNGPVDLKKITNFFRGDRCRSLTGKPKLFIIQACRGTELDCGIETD
T1 sequence (P42574 176-277 limits assumed): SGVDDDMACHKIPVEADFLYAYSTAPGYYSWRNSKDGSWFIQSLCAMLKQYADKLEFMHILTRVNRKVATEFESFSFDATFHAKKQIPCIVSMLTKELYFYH
Briefly: GST pull-down binding to caspase-3. To be noted: glutathione-Sepharose beads, immunoblot. The protocol:
(§3) Following incubation at 4° C. for 60 min, the beads were removed by centrifugation and washed twice with 100 vol 50 mM Tris (pH 7.5), 150 mM KCl, 2 mM DTT and 0.025% Triton-X100, then subjected to SDS-PAGE and immunoblot assay (see Example I.B.3).
In general terms: Immunoblotting shows a protein as a band on a membrane.

The target in assay [4] is T2, caspase-7 (Homo sapiens, UniProt P55210).
T2 construct: Purified active caspase concentrations ranged from 0.1 nM to 10 nM; His6; made in house; host or cells: E. coli BL21(DE3)pLysS
T2 sequence (P55210 24-198 limits assumed): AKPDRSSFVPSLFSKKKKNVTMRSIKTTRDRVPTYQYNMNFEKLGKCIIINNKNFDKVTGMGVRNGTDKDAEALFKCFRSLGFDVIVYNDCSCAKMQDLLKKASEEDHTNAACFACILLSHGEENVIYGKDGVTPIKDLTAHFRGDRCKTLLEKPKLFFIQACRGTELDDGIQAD
T2 sequence (P55210 207-303 limits assumed): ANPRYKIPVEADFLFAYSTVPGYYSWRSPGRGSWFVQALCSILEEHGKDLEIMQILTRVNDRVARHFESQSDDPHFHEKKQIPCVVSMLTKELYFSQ
The assay is described as follows: GST pull-down binding to caspase-7. The settings on record: glutathione-Sepharose beads, immunoblot. The protocol:
as §3

Assay [5] has as its target T1, caspase-3. Briefly: Inhibition of purified recombinant caspase-3, DEVD substrate hydrolysis and progress curves. The format is biochemical. The settings on record: DEVD-pNA hydrolysis. Here is the method:
Purified recombinant caspase-1, caspase-3, caspase-6, caspase-7 or caspase-8 were incubated with DEVD-pNA, either alone or with a 10-fold to 50-fold molar excess of GST-XIAP ([…]) and substrate hydrolysis was measured. Purified active caspase concentrations ranged from 0.1 nM to 10 nM. XIAP concentration ranged from 0.1 nM to 500 nM. Assays were performed in caspase buffer (50 mM Tris, pH 7.4, 100 mM NaCl, 10% sucrose, 5–10 mM DTT, 1 mM EDTA and 0.1% CHAPS).
Equilibria were determined from progress curves when substrate hydrolysis reached a steady-state; slopes were calculated by curve fit analysis using the cricket graph program. Experiments were performed using purified recombinant caspase-3, caspase-6, or caspase-7. DEVD-AFC hydrolysis was measured using 0.1 nM caspase and a range of concentrations (0.2 to 12 μM) of recombinant XIAP (rXIAP). […] Average ratio velocities (vi/vo, where “vi” indicates presence of GST-XIAP and “vo” indicates absence of GST-XIAP) were determined.
Caspase activity was determined essentially as described in Example II, using the benzylyoxycarbonyl-DEVD-AFC (SEQ ID NO: 2) substrate and was assayed at 37° C. using the Perkin-Elmer LS50B fluorometric plate reader in the kinetic mode with excitation and emission wavelengths of 400 nm and 505 nm, respectively. […] Reactions were performed in caspase buffer (50 mM Hepes, 100 mM NaCl, 1 mM EDTA, 0.1% CHAPS, 10% sucrose, 5 mM DTT). The inhibition constant, Ki, was calculated as described (Zhou et al., supra, 1997). Immunoblot analysis was performed as described in Example I.B.3.

Assay [6] has as its target T2, caspase-7. The assay is described as follows: Inhibition of purified recombinant caspase-7, DEVD substrate hydrolysis and progress curves. The format is biochemical. The settings on record: DEVD-pNA hydrolysis.
Method: Purified recombinant caspase-1, caspase-3, caspase-6, caspase-7 or caspase-8 were incubated with DEVD-pNA, either alone or with a 10-fold to 50-fold molar excess of GST-XIAP (20 μM) and substrate hydrolysis was measured. Purified active caspase concentrations ranged from 0.1 nM to 10 nM. XIAP concentration ranged from 0.1 nM to 500 nM. Assays were performed in caspase buffer (50 mM Tris, pH 7.4, 100 mM NaCl, 10% sucrose, 5–10 mM DTT, 1 mM EDTA and 0.1% CHAPS).
The mark [7] stands for this setting: listed as GST-fusion containing the RING domain.

As to “GST-Bax: recombinant control protein, GST fusion of Bax [reference compound]”, in assay [1], the “DEVD-pNA hydrolysis, ΔA405 after 15 min” value is recorded as “≈ 0.1”. Moreover, in assay [2], the “DEVD-pNA hydrolysis, ΔA405 after 15 min” value is “≈ 0.09” and the “DEVD-pNA hydrolysis, ΔA405 after 20 min” value is “≈ 0.1”.

B1: His6-S5a: recombinant control protein, His6-S5a proteasome subunit (protein, UniProt P55036 1-377, looked up)
26S proteasome non-ATPase …: MVLESTMVCVDNSEYMRNGDFLPTRLQAQQDAVNIVCHSKTRSNPENNVGLITLANDCEVLTTLTPDTGRILSKLHTVQPKGKITFCTGIRVAHLALKHRQGKNHKMRIIAFVGSPVEDNEKDLVKLAKRLKKEKVNVDIINFGEEEVNTEKLTAFVNTLNGKDGTGSHLVTVPPGPSLADALISSPILAGEGGAMLGLGASDFEFGVDPSADPELALALRVSMEEQRQRQEEEARRAAAASAAEAGIATTGTEDSDDALLKMTISQQEFGRTGLPDLSSMTEEEQIAYAMQMSLQGAEFGQAESADIDASSAMDTSEPAKEEDDYDVMQDPEFLQSVLENLPGVDPNNEAIRNAMGSLASQATKDGKKDKKEEDKK
modifications: His6 tag
notes: recombinant control protein, His6-S5a proteasome subunit
Take B1: the “DEVD-pNA hydrolysis, ΔA405 after 15 min” value in assay [1] is reported as “≈ 0.1”. Besides, in assay [2], the “DEVD-pNA hydrolysis, ΔA405 after 15 min” value is given as “≈ 0.09” and the “DEVD-pNA hydrolysis, ΔA405 after 20 min” value is “≈ 0.1”.

B2: NAIP: neuronal apoptosis inhibitory protein, GST construct (protein, UniProt Q13075 1-1403, looked up)
Baculoviral IAP …: MATQQKASDERISQFDHNLLPELSALLGLDAVQLAKELEEEEQKERAKMQKGYNSQMRSEAKRLKTFVTYEPYSSWIPQEMAAAGFYFTGVKSGIQCFCCSLILFGAGLTRLPIEDHKRFHPDCGFLLNKDVGNIAKYDIRVKNLKSRLRGGKMRYQEEEARLASFRNWPFYVQGISPCVLSEAGFVFTGKQDTVQCFSCGGCLGNWEEGDDPWKEHAKWFPKCEFLRSKKSSEEITQYIQSYKGFVDITGEHFVNSWVQRELPMASAYCNDSIFAYEELRLDSFKDWPRESAVGVAALAKAGLFYTGIKDIVQCFSCGGCLEKWQEGDDPLDDHTRCFPNCPFLQNMKSSAEVTPDLQSRGELCELLETTSESNLEDSIAVGPIVPEMAQGEAQWFQEAKNLNEQLRAAYTSASFRHMSLLDISSDLATDHLLGCDLSIASKHISKPVQEPLVLPEVFGNLNSVMCVEGEAGSGKTVLLKKIAFLWASGCCPLLNRFQLVFYLSLSSTRPDEGLASIICDQLLEKEGSVTEMCVRNIIQQLKNQVLFLLDDYKEICSIPQVIGKLIQKNHLSRTCLLIAVRTNRARDIRRYLETILEIKAFPFYNTVCILRKLFSHNMTRLRKFMVYFGKNQSLQKIQKTPLFVAAICAHWFQYPFDPSFDDVAVFKSYMERLSLRNKATAEILKATVSSCGELALKGFFSCCFEFNDDDLAEAGVDEDEDLTMCLMSKFTAQRLRPFYRFLSPAFQEFLAGMRLIELLDSDRQEHQDLGLYHLKQINSPMMTVSAYNNFLNYVSSLPSTKAGPKIVSHLLHLVDNKESLENISENDDYLKHQPEISLQMQLLRGLWQICPQAYFSMVSEHLLVLALKTAYQSNTVAACSPFVLQFLQGRTLTLGALNLQYFFDHPESLSLLRSIHFPIRGNKTSPRAHFSVLETCFDKSQVPTIDQDYASAFEPMNEWERNLAEKEDNVKSYMDMQRRASPDLSTGYWKLSPKQYKIPCLEVDVNDIDVVGQDMLEILMTVFSASQRIELHLNHSRGFIESIRPALELSKASVTKCSISKLELSAAEQELLLTLPSLESLEVSGTIQSQDQIFPNLDKFLCLKELSVDLEGNINVFSVIPEEFPNFHHMEKLLIQISAEYDPSKLVKLIQNSPNLHVFHLKCNFFSDFGSLMTMLVSCKKLTEIKFSDSFFQAVPFVASLPNFISLKILNLEGQQFPDEETSEKFAYILGSLSNLEELILPTGDGIYRVAKLIIQQCQQLHCLRVLSFFKTLNDDSVVEIAKVAISGGFQKLENLKLSINHKITEEGYRNFFQALDNMPNLQELDISRHFTECIKAQATTVKSLSQCVLRLPRLIRLNMLSWLLDADDIALLNVMKERHPQSKYLTILQKWILPFSPIIQK
modifications: GST tag
On to B2, for which the “binding of caspase-3 (in words)” value in assay [3] is given as “bound”. The “binding of caspase-7 (in words)” value in assay [4] was “bound”.

B3: GST fusion protein containing only the three BIR domains of XIAP: GST fusion of XIAP amino acids 1–337 (three BIR domains) (protein, UniProt P98170 1-337, looked up, fragment)
chain: MTFNSFEGSKTCVPADINKEEEFVEEFNRLKTFANFPSGSPVSASTLARAGFLYTGEGDTVRCFSCHAAVDRWQYGDSAVGRHRKVSPNCRFINGFYLENSATQSTNSGIQNGQYKVENYLGSRDHFALDRPSETHADYLLRTGQVVDISDTIYPRNPAMYSEEARLKSFQNWPDYAHLTPRELASAGLYYTGIGDQVQCFCCGGKLKNWEPCDRAWSEHRRHFPNCFFVLGRNLNIRSESDAVSSDRNFPNSTNLPRNPSMADYEARIFTFGTWIYSVNKEQLARAGFYALGEGDKVKCFHCGGGLTDWKPSEDPWEQHAKWYPGCKYLLEQKGQE
modifications: GST fusion
Consider B3, for which the “inhibition of caspase-3 in vitro (in words)” value in assay [5] was “potently inhibited”. For the same molecule, the “inhibition of caspase-7 in vitro (in words)” value in assay [6] is listed as “potently inhibited”.

B4: GST fusion protein containing the RING domain: GST fusion of XIAP amino acids 338–497 (RING domain) (protein, UniProt P98170 338-497, looked up, fragment)
chain: YINNIHLTHSLEECLVRTTEKTPSLTRRIDDTIFQNPMVQEAIRMGFSFKDIKKIMEEKIQISGSNYKSLEVLVADLVNAQKDSMQDESSQTSLQKEISTEEQLRRLQEEKLCKICMDRNIAIVFVPCGHLVTCKQCAEAVDKCPMCYTVITFKQKIFMS
modifications: GST fusion
With B4, the “inhibition of caspase-3 in vitro (in words)” value in assay [5] is “had no effect”; in assay [5] (setting [7]), “no significant effect”. Besides, the results for the “inhibition of caspase-7 in vitro (in words)” value in assay [6] and in assay [6] (setting [7]) were “had no effect” and “no significant effect”, respectively.
